This note sets out measurements from patent US10357539B2, “Use of peptides that block metadherin-SND1 interaction as treatment for cancer” (THE TRUSTEES OF PRINCETON UNIVERSITY, priority 2014, dated 2019).

The labels stand for the following.
B1: murine TPM1: murine Mtdh triple mutant D386R, D390R, W391D (protein, UniProt Q80WJ7 1-579, looked up, variant D386R D390R W391D)
Protein LYRIC: MAARSWQDELAQQAEEGSARLRELLSVGLGFLRTELGLDLGLEPKRYPGWVILVGTGALGLLLLFLLGYGWAAACAGARKKRRSPPRKREEAAPPTPAPDDLAQLKNLRSEEQKKKNRKKLPEKPKPNGRTVEVPEDEVVRNPRSITAKQAPETDKKNEKSKKNKKKSKSDAKAVQNSSRHDGKEVDEGAWETKISHREKRQQRKRDKVLTDSGSLDSTIPGIENIITVTTEQLTTASFPVGSKKNKGDSHLNVQVSNFKSGKGDSTLQVSSRLNENLTVNGGGWSEKSVKLSSQLSEEKWNSVPPASAGKRKTEPSAWTQDTGDTNANGKDWGRNWSDRSIFSGIGSTAEPVSQSTTSDYQWDVSRNQPYIDDEWSGLNGLSSARPSSRDNAPAEEWGNWVDEDRASLLKSQEPISNDQKVSDDDKEKGEGALPTGKSKKKKKKKKKQGEDNSHTQDTEDLEKDTREELPVNTSKARPKQEKACSLKTMSTSDPAEVLIKNSQPVKTLPPAISAEPSITLSKGDSDNSSSQVPPMLQDTDKPKSNAKQNSVPPSQTKSETNWESPKQIKKKKKARRET
B2: murine W394A: murine MTDH mutant W391A, corresponding to human W394A (protein)
chain: MAARSWQDELAQQAEEGSARLRELLSVGLGFLRTELGLDLGLEPKRYPGWVILVGTGALGLLLLFLLGYGWAAACAGARKKRRSPPRKREEAAPPTPAPDDLAQLKNLRSEEQKKKNRKKLPEKPKPNGRTVEVPEDEVVRNPRSITAKQAPETDKKNEKSKKNKKKSKSDAKAVQNSSRHDGKEVDEGAWETKISHREKRQQRKRDKVLTDSGSLDSTIPGIENIITVTTEQLTTASFPVGSKKNKGDSHLNVQVSNFKSGKGDSTLQVSSRLNENLTVNGGGWSEKSVKLSSQLSEEKWNSVPPASAGKRKTEPSAWTQDTGDTNANGKDWGRNWSDRSIFSGIGSTAEPVSQSTTSDYQWDVSRNQPYIDDEWSGLNGLSSADPSSDANAPAEEWGNWVDEDRASLLKSQEPISNDQKVSDDDKEKGEGALPTGKSKKKKKKKKKQGEDNSHTQDTEDLEKDTREELPVNTSKARPKQEKACSLKTMSTSDPAEVLIKNSQPVKTLPPAISAEPSITLSKGDSDNSSSQVPPMLQDTDKPKSNAKQNSVPPSQTKSETNWESPKQIKKKKKARRET
B3: murine TPM2: murine Mtdh triple mutant E396R, E397R, W398D (protein, UniProt Q80WJ7 1-579, looked up, variant E396R E397R W398D)
Protein LYRIC: MAARSWQDELAQQAEEGSARLRELLSVGLGFLRTELGLDLGLEPKRYPGWVILVGTGALGLLLLFLLGYGWAAACAGARKKRRSPPRKREEAAPPTPAPDDLAQLKNLRSEEQKKKNRKKLPEKPKPNGRTVEVPEDEVVRNPRSITAKQAPETDKKNEKSKKNKKKSKSDAKAVQNSSRHDGKEVDEGAWETKISHREKRQQRKRDKVLTDSGSLDSTIPGIENIITVTTEQLTTASFPVGSKKNKGDSHLNVQVSNFKSGKGDSTLQVSSRLNENLTVNGGGWSEKSVKLSSQLSEEKWNSVPPASAGKRKTEPSAWTQDTGDTNANGKDWGRNWSDRSIFSGIGSTAEPVSQSTTSDYQWDVSRNQPYIDDEWSGLNGLSSADPSSDWNAPARRDGNWVDEDRASLLKSQEPISNDQKVSDDDKEKGEGALPTGKSKKKKKKKKKQGEDNSHTQDTEDLEKDTREELPVNTSKARPKQEKACSLKTMSTSDPAEVLIKNSQPVKTLPPAISAEPSITLSKGDSDNSSSQVPPMLQDTDKPKSNAKQNSVPPSQTKSETNWESPKQIKKKKKARRET

The target of this assay is T1, SND1 (Mus musculus, UniProt Q78PY7).
T1 construct: endogenous in cells; host or cells: PyMT;Mtdh−/− (A9) or PyMT;Mtdh+/+ (A13) mouse mammary epithelial/tumor cells
T1 sequence (Q78PY7 1-910): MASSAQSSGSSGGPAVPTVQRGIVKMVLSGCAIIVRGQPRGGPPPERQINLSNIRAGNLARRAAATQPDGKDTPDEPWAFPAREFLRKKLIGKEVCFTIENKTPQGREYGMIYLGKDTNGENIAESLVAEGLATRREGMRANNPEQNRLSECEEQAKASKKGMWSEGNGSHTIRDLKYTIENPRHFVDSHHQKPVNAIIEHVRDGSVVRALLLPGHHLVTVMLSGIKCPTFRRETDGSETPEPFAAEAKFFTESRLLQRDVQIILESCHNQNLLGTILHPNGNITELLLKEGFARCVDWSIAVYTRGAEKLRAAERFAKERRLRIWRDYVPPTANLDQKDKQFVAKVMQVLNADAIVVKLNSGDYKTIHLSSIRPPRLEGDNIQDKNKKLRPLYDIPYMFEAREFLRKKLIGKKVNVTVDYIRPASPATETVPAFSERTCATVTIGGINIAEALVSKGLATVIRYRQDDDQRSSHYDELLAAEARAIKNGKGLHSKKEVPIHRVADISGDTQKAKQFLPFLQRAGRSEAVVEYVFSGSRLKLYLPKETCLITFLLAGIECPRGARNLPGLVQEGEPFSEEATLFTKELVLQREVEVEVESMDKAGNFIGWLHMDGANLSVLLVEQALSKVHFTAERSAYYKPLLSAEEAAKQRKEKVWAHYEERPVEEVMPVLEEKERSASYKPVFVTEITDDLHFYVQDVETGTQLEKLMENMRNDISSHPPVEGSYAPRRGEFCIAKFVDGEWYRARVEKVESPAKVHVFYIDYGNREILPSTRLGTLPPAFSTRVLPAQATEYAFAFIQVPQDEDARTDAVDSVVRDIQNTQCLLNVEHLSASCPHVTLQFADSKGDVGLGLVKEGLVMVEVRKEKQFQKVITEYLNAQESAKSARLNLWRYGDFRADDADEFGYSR
Briefly: Anti-MTDH immunoprecipitation from PyMT;Mtdh−/− tumor cells reconstituted with murine MTDH. The class given is cell-based. As to conditions: stably expressed in PyMT;Mtdh−/− tumor cells. As for the experimental part: (FIG. 8A, FIG. 8E) Lysates from PyMT;Mtdh−/− MECs reconstituted with vector control, WT or mutant murine MTDH were immunoprecipitated with anti-MTDH antibody and immunoblotted for indicated proteins. (FIG. 8B, FIG. 8F) Mammosphere assays were performed with PyMT;Mtdh−/− pMECs reconstituted with indicated Mtdh constructs. (FIG. 8C, FIG. 8D, FIG. 8G, FIG. 8H) In vivo tumor formation (FIG. 8C, FIG. 8G for tumor incidence; FIG. 8D, FIG. 8H for tumor volumes) were performed at limiting numbers using PyMT;Mtdh−/− pMECs reconstituted with indicated WT or mutant MTDH. *Note: mouse W391D MTDH corresponds to human W394D MTDH; and mouse W398D MTDH corresponds to human W401D MTDH. Statistics: (FIG. 8B, […]) Student's t-test. (FIG. 8C, FIG. 8G) Limiting dilution analysis. (FIG. 8D, FIG. 8H) Mann-Whitney test. Data represent mean±SEM. ***p<0.001, **p<0.01, *p<0.05.
(FIG. 23A) Lysates from PyMT;Mtdh−/− tumor cells reconstituted with vector control, WT or mutant murine MTDH were immunoprecipitated with anti-MTDH antibody and immunoblotted for indicated proteins. Note all amino acid annotations are based on human MTDH. W394 and W401 of human MTDH correspond to W391 and W398 in murine MTDH, respectively. (FIG. 23B) Mammosphere assays were performed with PyMT;Mtdh−/− tumor cells reconstituted with indicated MTDH constructs. (FIG. 23C-E) In vivo tumor formation (FIG. 23C for tumor incidence; FIG. 23D, FIG. 23E for tumor volumes) were performed at limiting numbers using PyMT;Mtdh−/− tumor cells reconstituted with indicated WT or mutant MTDH. Statistics: (FIG. 23B) Student's t-test. Data represent mean±SEM. (FIG. 23C) Limiting dilution analysis. (FIG. 23D, FIG. 23E) Mann-Whitney test. **p<0.01, *p<0.05.
Immunoprecipitation and western blot For immunoprecipitation (IP) experiments, cultured cells were washed in cold PBS and lysed in lysis buffer (20 mM Tris pH 7.4, 0.15 M NaCl, 1 mM EDTA, 1 mM EGTA, 1% Tx-100, 0.0025 M Na2P2O7, 1 mM α-glycerolphosphate, 1 mM Na3VO4, and 1 mM NaF) with an EDTA-free protease inhibitor mixture (Roche Applied Science) and PMSF. Cell lysates were then incubated on ice for 10 min, centrifuged, and precleared by incubating with protein A/G beads (Santa Cruz Biotechnology) for 1 h at 4° C. For IP bead preparation, 30 μl of protein A/G beads were incubated with 5 μg of antibodies for 2 h at 4° C. IPs were carried out for overnight at 4° C., and beads were centrifuged, washed and subsequently boiled for 5 min in SDS protein loading buffer to elute bound protein. IP lysates were subjected to western blotting with indicated antibodies. […]
In the case of B1, the “interaction of murine MTDH mutants with SND1” value is listed as “lost the ability to interact with SND1”.
As for B2, the entry is “completely lost the ability to interact with SND1”; as for B3, “lost the ability to interact with SND1”.
